B1: T84.66-LCHA (P1AH2338) (antibody, V domains shown)
VH: QVQLVQSGAEVKKPGSSVKVSCKASGFNIKDTYMHWVRQAPGQGLEWMGRIDPANGNSKYVPKFQGRVTITADTSTSTAYMELSSLRSEDTAVYYCAPFGYYVSDYAMAYWGQGTLVTVSS
VL: EIVLTQSPATLSLSPGERATLSCRAGESVDIFGVGFLHWYQQKPGQAPRLLIYRASNRATGIPARFSGSGSGTDFTLTISSLEPEDFAVYYCQQTNEDPYTFGQGTKLEIK
notes: also called humanized variant 1
B2: P1AH2369 (antibody, V domains shown)
VH: B1 VH
VL: B1 VL with V34N, G35S
B3: P1AH2368 (antibody, V domains shown)
VH: B1 VH
VL: B1 VL with I31S, F32Y
B4: P1AH2349 (antibody, human IgG1, V domains shown)
VH: EVQLVESGGGLVQPGGSLRLSCAASGFNIKDTYMHWVRQAPGKGLEWVGRIDPANGNSKYADSVKGRFTISADTSKNTAYLQMNSLRAEDTAVYYCAPFGYYVSDYAMAYWGQGTTVTVSS
VL: B1 VL
notes: also called rehumanized improved expression variant
B5: P1AH2359 (antibody, human IgG1, name in Kabat numbering, V domains shown)
VH: B1 VH with E82Q
VL: B1 VL
B6: P1AH2357 (antibody, name in Kabat numbering, V domains shown)
VH: B1 VH with D31S
VL: B1 VL
B7: P1AH2364 (antibody, human IgG1, name in Kabat numbering, V domains shown)
VH: B1 VH
VL: B1 VL with A55G
B8: P1AH2352 (antibody, human IgG1, name in Kabat numbering, V domains shown)
VH: B1 VH with P98T
VL: B1 VL
notes: Kabat positions
B9: P1AH2351 (antibody, human IgG1, name in Kabat numbering, V domains shown)
VH: B1 VH with P98A
VL: B1 VL
notes: Kabat positions
B10: P1AH2354 (antibody, human IgG1, name in Kabat numbering, V domains shown)
VH: B1 VH with P98S
VL: B1 VL
notes: Kabat positions
B11: P1AH2366 (antibody, human IgG1, name in Kabat numbering, V domains shown)
VH: B1 VH
VL: B1 VL with F32Y
notes: Kabat positions
B12: P1AH2370 (antibody, human IgG1, name in Kabat numbering, V domains shown)
VH: B1 VH
VL: B1 VL with D30S
B13: P1AH2361 (antibody, human IgG1, name in Kabat numbering, V domains shown)
VH: B1 VH with K30T
VL: B1 VL
B14: P1AH2350 (antibody, name in Kabat numbering, V domains shown)
VH: B1 VH with P98V
VL: B1 VL
B15: P1AH2373 (antibody, human IgG1, name in Kabat numbering, V domains shown)
VH: B1 VH
VL: B1 VL with D98N
B16: P1AI5025 (antibody, human IgG1, name in Kabat numbering, V domains shown)
VH: B4 VH
VL: B1 VL with A55G, Q93G, N96S
B17: P1AI5032 (antibody, human IgG1, name in Kabat numbering, V domains shown)
VH: B4 VH
VL: B1 VL with I31H, A55G
notes: Double mutant of T84.66-LCHA VL
B18: P1AI5026 (antibody, human IgG1, name in Kabat numbering, V domains shown)
VH: B4 VH
VL: B1 VL with A55G, Q93G, N96T
B19: P1AI5023 (antibody, human IgG1, name in Kabat numbering, V domains shown)
VH: B4 VH
VL: B1 VL with A55G, Q93G, D98H
B20: P1AI5027 (antibody, human IgG1, name in Kabat numbering, V domains shown)
VH: B4 VH
VL: B1 VL with A55G, Q93G, N96Q
B21: P1AI5019 (antibody, human IgG1, name in Kabat numbering, V domains shown)
VH: B4 VH
VL: B1 VL with A55G, Q93G, P99Y
B22: P1AI5021 (antibody, human IgG1, name in Kabat numbering, V domains shown)
VH: B4 VH
VL: B1 VL with A55G, Q93G, D98P
B23: P1AI5028 (antibody, human IgG1, name in Kabat numbering, V domains shown)
VH: B4 VH
VL: B1 VL with A55G, Q93G, N96H
B24: P1AI5029 (antibody, human IgG1, name in Kabat numbering, V domains shown)
VH: B4 VH
VL: B1 VL with A55G, Q93G, N96K
B25: P1AI5030 (antibody, human IgG1, name in Kabat numbering, V domains shown)
VH: B4 VH
VL: B1 VL with A55G, V89Y, Q93G
B26: P1AI5013 (antibody, human IgG1, V domains shown)
VH: B4 VH
VL: B1 VL with I31H
B27: P1AI5024 (antibody, human IgG1, name in Kabat numbering, V domains shown)
VH: B4 VH
VL: B1 VL with A55G, Q93G, N96Y

The values below come from patent US20260071002A1 (Hoffmann-La Roche, published 2026).

Substitutions are numbered along the chain they refer to.

The EC50 is the concentration that produces a half-maximal response. A high value points to a less potent agent.

The target of one assay is T1, human CEACAM5 (human, UniProt P06731 35-685).
T1 construct: whole, on cells; Target on MKN-45 (DSMZ ACC409) and LS180 (ATCC CL-187) cells; also called carcinoembryonic antigen-related cell adhesion molecule 5; CD66e
T1 sequence (looked up): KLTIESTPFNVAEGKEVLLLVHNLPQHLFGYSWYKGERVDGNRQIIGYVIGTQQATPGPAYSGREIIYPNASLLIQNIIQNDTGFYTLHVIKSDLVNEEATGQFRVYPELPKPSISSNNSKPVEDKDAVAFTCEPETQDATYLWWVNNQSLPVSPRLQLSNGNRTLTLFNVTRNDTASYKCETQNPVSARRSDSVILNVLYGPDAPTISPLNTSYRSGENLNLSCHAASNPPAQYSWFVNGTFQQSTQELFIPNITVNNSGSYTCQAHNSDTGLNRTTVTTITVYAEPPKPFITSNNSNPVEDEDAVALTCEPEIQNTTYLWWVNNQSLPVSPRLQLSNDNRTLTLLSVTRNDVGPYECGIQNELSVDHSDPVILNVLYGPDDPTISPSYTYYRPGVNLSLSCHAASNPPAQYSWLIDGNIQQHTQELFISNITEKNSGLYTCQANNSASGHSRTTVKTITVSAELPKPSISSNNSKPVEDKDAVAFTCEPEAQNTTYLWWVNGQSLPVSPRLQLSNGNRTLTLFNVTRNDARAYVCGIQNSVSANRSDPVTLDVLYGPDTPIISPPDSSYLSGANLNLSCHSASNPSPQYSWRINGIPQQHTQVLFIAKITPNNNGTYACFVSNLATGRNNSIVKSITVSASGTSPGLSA
Kind of assay: FACS on MKN-45 cells expressing human CEACAM5. Here is the method: The cellular binding assay was performed as follows.
(§1) 10 μl of a 1×10⁴ MKN-45 (DSMZ ACC409) cell suspension in assay buffer was seeded in all Wells of a 384 well polypropylene plate (Weidmann #23490-101). Then 10 μl of antibodies diluted in assay buffer (double concentrated), at a start concentration of 100 μg/ml, serially diluted 1:4 were added to the plate. After 90 minutes incubation at 4° C., 60 μl assay buffer was added followed by a centrifuge step (330×g, 5 min) and an aspirating step (BioTek washer 405H) where 60 μl of supernatant were discarded. 20 μl of detection antibody (Alpaca anti rabbit IgG Chromotek #srbAF647-1) diluted in assay buffer (double concentrated) to a final concentration of 0.5 μg/ml was added to all Wells followed by 1 hour incubation time at room temperature. The cells were then subjected to two washing steps with 40 μl and 60 μl assay buffer as described above and then resuspended in 20 μl assay buffer. Cell binding was measured on an iQue Screener Plus high throughput FACS device from Sartorius/Intellicyt.
Molecule B1 had a half-maximal effective concentration (EC50) of 5.3 nM.

Molecule B2 showed an EC50 of 5.5 nM.

On to B3, for which the half-maximal effective concentration (EC50) was 2.5 nM.

Regarding B4, the EC50 amounted to 7.2 nM. Compared with the last molecule, the EC50 is about 2.9-fold higher.

In turn, B5 showed a concentration giving a half-maximal response (EC50) of 12.9 nM.

As for B6, the EC50 was determined as 2.3 nM.

Molecule B7 displayed a concentration giving a half-maximal response (EC50) of 1.9 nM.

As for B8, the 50% effective concentration (EC50) stood at 21.9 nM.

B9 had an EC50 of 39.1 nM.

In the case of B10, it took 20.4 nM to reach a half-maximal effect (EC50). Against the preceding molecule, the EC50 is about 1.9-fold lower.

Consider B11, for which the EC50 was 2.7 nM.

Take B12: the midpoint of the response, the EC50, lay at 3.1 nM.

The molecule B13 displayed a concentration giving a half-maximal response (EC50) of 21.9 nM.

B14 showed an EC50 of 30.1 nM.

The molecule B15 came in with an EC50 of 2.5 nM.

For another assay, the target named is T1, human CEACAM5. Put plainly: FACS on MKN-45 cells expressing human CEACAM5. The source holds these as a separate data set. The procedure:
as §1
Consider B1, for which the midpoint of the response, the EC50, lay at 0.989 µg/mL.

Take B4: the EC50 is 1.11 µg/mL.

Molecule B16 registered a half-maximal effective concentration (EC50) of 2.44 µg/mL.

On to B17, for which the EC50 amounted to 1.53 µg/mL.

In turn, B18 had an EC50 of 1.83 µg/mL.

Consider B19, for which the concentration for a half-maximal effect (EC50) is 7.21 µg/mL.

Molecule B20 gave a concentration for a half-maximal effect (EC50) of 25.1 µg/mL.

Regarding B21, the half-maximal effective concentration (EC50) was found to be 2.49 µg/mL.

As for B22, the concentration giving a half-maximal response (EC50) worked out at 1.62 µg/mL.

With B23, the midpoint of the response, the EC50, lay at 7.51 µg/mL.

The molecule B24 displayed an EC50 of 1.92 µg/mL.

B25 registered an EC50 of 11.2 µg/mL. Against the preceding molecule, the EC50 is about 5.8-fold higher.

Regarding B26, it took 0.685 µg/mL to reach a half-maximal effect (EC50).

B27 registered a 50% effective concentration (EC50) of 11.5 µg/mL. This EC50 is about 17-fold higher than that of the molecule before.
